Test results reported in article PMC10164616.

Biological target: monomeric receptor binding domain from SARS-CoV-2 Spike protein, RBD (319-541)-His6 (SARS-CoV-2) (UniProt P0DTC2)
Test: SEC

For “monomeric receptor binding domain from SARS-CoV-2 Spike protein, RBD (319-541)-His6 (from UniProt P0DTC2 319-541) (domain or fragment)”, the percent dimer (GF-HPLC, first week at 37 °C) was 14% and the stoichiometry N was 2.
